Laboratory results taken from the supplement of paper PMC7125110.
± gives the standard error. This sample holds only a part of the variants without activity.

B1: glmS ribozyme (parent)
chain: AUAAAAGCGCCAGAACUACAGAAAUGUAGUUGACGAGGAGGAGGUUUAUCGAAUUUUCGGCGGAUGCCUCCAAA

Assays:
Conditions in all cases: with glucosamine-6-phosphate
[1] = variants of: B1; assay: self-cleavage kobs at 40 uM GlcN6P; higher = faster cleavage; RNA array
Method in brief: (§1)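 A hybridised Cy3 probe tracked barcoded ribozyme variants, transcribed in situ by E. coli RNA polymerase on sequenced MiSeq chips, at 37 °C. The variants received 40 μM to 10 mM glucosamine-6-phosphate in HEPES/KCl/Mg(OAc)2 buffer. kobs came from decay fits and kcat and KM from weighted Michaelis–Menten fits.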

[2] = variants of: B1; assay: self-cleavage kobs at 160 uM GlcN6P; higher = faster cleavage; RNA array
Method in brief: as §1

[3] = variants of: B1; assay: self-cleavage kobs at 10000 uM GlcN6P; higher = faster cleavage; RNA array
Method in brief: as §1

[4] = variants of: B1; assay: self-cleavage kobs at 640 uM GlcN6P; higher = faster cleavage; RNA array
Method in brief: as §1

[5] = variants of: B1; assay: self-cleavage kobs at 2500 uM GlcN6P; higher = faster cleavage; RNA array
Method in brief: as §1

Variant | self-cleavage kobs at 40 uM GlcN6P [1] | self-cleavage kobs at 160 uM GlcN6P [2] | self-cleavage kobs at 10000 uM GlcN6P [3] | self-cleavage kobs at 640 uM GlcN6P [4] | self-cleavage kobs at 2500 uM GlcN6P [5]
AUAAAAGCGCCAGAACUACAGAAAUGUAGUUGACGUGGAGGAGGUUUAUCGAAUUUUCGGCGGAGGCCUCCAAA | < 1e-05 s⁻¹ | < 1e-05 s⁻¹ | < 1e-05 s⁻¹ |  | 
AUAAAAGCGCCAGACCUACAGAAAUGUAGUUGACGAGGAGGAGGUUUAUGGAGUUUUCGGCAGAUGCCUGCAAA | 0.000105 ± 3e-05 s⁻¹ |  | 8.78e-05 ± 1.9e-05 s⁻¹ | 8.17e-05 ± 2.4e-05 s⁻¹ | 0.000125 ± 4.1e-05 s⁻¹
AUAAAAGCGCCAGAACUACAGAAAUGUAGUUGACGAGGAGAAGGUUUUUCGAAUUUUCGGCGGAUGCAUCCAAA | < 1e-05 s⁻¹ |  | < 1e-05 s⁻¹ | < 1e-05 s⁻¹ | < 1e-05 s⁻¹
AUAAAAGCGCCAGAACUACAGAAAUGUAGUUGACGAGGAGGAGGUAUAUCGAAUUUUCGGCGGAUGCCACCAAA | < 1e-05 s⁻¹ |  | 9.26e-05 ± 1.9e-05 s⁻¹ | 5.02e-05 ± 2e-05 s⁻¹ | 0.00022 ± 6.2e-05 s⁻¹
AUAAAAGCGCCAGAACUACAGAAAUGUAGUUGACGAGGAGGGGGUUUAUCGAAUGUUCCGCGGAUGCCUCCAAA | < 1e-05 s⁻¹ |  |  |  | < 1e-05 s⁻¹
AUAAAAGCGCCAGAACUACAGAAAUGUAGUUGAGGAGAAGGAGGUUUAUCGAAUUUUUGGCGGAUGCCUCCAAA | < 1e-05 s⁻¹ |  |  |  | 
AUAAAAGCGCCAGAAUUACAGAAAUGUAGUUGACGAGGAGGAGGUUUAUCGAAUUUUCGGCGGAUGCCUCGAAA | 6.56e-05 ± 7.6e-06 s⁻¹ | 0.00019 ± 2.6e-05 s⁻¹ | 0.000726 ± 0.0001 s⁻¹ | 0.000313 ± 4.5e-05 s⁻¹ | 0.000215 ± 3.4e-05 s⁻¹
AUAAAAUCGCCAGAACUACAGAAAUGUAGUUGAAGAGGAGGAGGUUUAUCGAAUUUUCGGCGGAUGCCUCCAAA | < 1e-05 s⁻¹ | < 1e-05 s⁻¹ | < 1e-05 s⁻¹ | < 1e-05 s⁻¹ | 
AUAAACGCGCCAGAACUACAGAAAUGUAGUUGACGAGGAGGAGGUUUAUCGAAUUUUCGGCGGUUGCCUCCAAA | < 1e-05 s⁻¹ | < 1e-05 s⁻¹ | < 1e-05 s⁻¹ | < 1e-05 s⁻¹ | 
AUAAAGGCGCCAGAACUACAGAAAUGUAGUUGACGAGGAGGAGGUUUAUCUAAUUUUCGGCGGAAGCCUCCAAA | < 1e-05 s⁻¹ |  | < 1e-05 s⁻¹ |  | 
AUAAAAGCGCGAGAACUACAGAAAUGUAGUUGACGAGGAGGAGGUUUAUCGAAUUGUCGGCGGUUGCCUCCAAA | < 1e-05 s⁻¹ | < 1e-05 s⁻¹ |  |  | < 1e-05 s⁻¹
AUAAAAGCGCCAGAACUACAGAAAUGUAGUUGACGAGGAGGAGGUUUAUAGACUUUUCGGCGGAUGCCUCCAAA | < 1e-05 s⁻¹ |  |  |  | 
AUAAAAGCGCCGGAACUACAGAAAUGUAGUUGACGACGAGGAGGUUUAUCGAAUUUUCGGCGGAUGCCUCCAAA | < 1e-05 s⁻¹ |  | < 1e-05 s⁻¹ | < 1e-05 s⁻¹ | 
AUAAAAGCGCAAGAACUACAGAAAUGUAGUUGACGAGGAGGGGGUUUAUCGAAUUAUCGGCGGAUGCCUCCAAA | < 1e-05 s⁻¹ |  | 7.2e-05 ± 1.5e-05 s⁻¹ |  | 2.82e-05 ± 1.3e-05 s⁻¹
AUAAAAGCGCCCGAACUACAGAAAUGUAGUUGACGAGGAGGAGGUUUAUCGAAUUUUUGGCGUAUGCCUCCAAA | < 1e-05 s⁻¹ |  | < 1e-05 s⁻¹ |  | 
AUAAAAGCGCCAGAACUACAGAAAUGUAGUUGACGAGGAGGAGGAUUAUCGAAGUUUCGGCGGAUGCCUCCAAA | 0.00129 ± 0.00023 s⁻¹ | 0.00383 ± 0.00079 s⁻¹ | 0.0501 ± 0.011 s⁻¹ | 0.0132 ± 0.0028 s⁻¹ | 0.0113 ± 0.0021 s⁻¹
AUAAAAGCGCCAGAACUACAGAAAUGUAGUUGACCAGGAGGAGGUUUAUCGAAUUUUAGGCGGAUGCCUCAAAA | < 1e-05 s⁻¹ |  | < 1e-05 s⁻¹ |  | 
AUAAAAGCGCCAGAACUACAGAAAUGUAGUUGACUAGGAGGAGGUUUCUCGAAUUUUCGGCGGAUGCCUCCAAA | < 1e-05 s⁻¹ |  | < 1e-05 s⁻¹ |  | < 1e-05 s⁻¹
AUAAAAGCGCCAGAACUACAGAAAUGUAGUUGCCGAGGAGGAGGUUUAUCGAAUUUUCGGCGUAUGUCUCCAAA | < 1e-05 s⁻¹ |  |  |  | 
AUAAAAGCGCCAGAACUACAGAAAUGUAGUAGACGAGGAGGGGGUUUAUCAAAUUUUCGGCGGAUGCCUGCAAA | < 1e-05 s⁻¹ |  | < 1e-05 s⁻¹ |  | 
AUAAAAGCGCCAGAACUACAGAAAUGUAGUUGAAGGGGCGGAGGUUUAUCGAAUUUUCGGCGGAUGCCUCCAAA | < 1e-05 s⁻¹ |  | < 1e-05 s⁻¹ |  | < 1e-05 s⁻¹
AUAAAAGCGCCAGCACUACAGAAAUGUAUUUGACGAGUAGGAGAUUUAUCGAAUUUUCGGCGGUUGCCUCCAAA | < 1e-05 s⁻¹ |  | < 1e-05 s⁻¹ |  | 
AUAAAAGCGCAAGAAAUACAGAAAUGUAGUUGACGAGGAGGAGGUUCAUCGAAUUUUCGGUGGAUGCCUCCAAA | < 1e-05 s⁻¹ |  |  |  | < 1e-05 s⁻¹
AUAAAAGCGCCGGAACUACAGAAAUGUAGUUGACCAGGAGGAGGUUUAUCGAAUUUUCGACGGAGGCGUCCAAA | 0.000127 ± 3.9e-05 s⁻¹ |  | 0.000121 ± 4.1e-05 s⁻¹ |  | 0.000384 ± 0.00015 s⁻¹
AUAAAAGCGCCAGAAUUACAGAAAUGUAGUUGACGAGGAGGAGGUUUAUUGAAUUUUCGGCGGAUGCCUCCAAA | < 1e-05 s⁻¹ |  | 0.000106 ± 2e-05 s⁻¹ |  | 5.3e-05 ± 1.3e-05 s⁻¹
AUAAAAGUGCCAGAACUACAGAAAUGUAGUUGACGAGGAGGAGGUUUAUCGAAUAUUAGGCGGAUGCCUCCAAA | < 1e-05 s⁻¹ |  | < 1e-05 s⁻¹ | < 1e-05 s⁻¹ | 
